Experimental data: publication PMC8791618

Legend:
[1] = target: Haliangium ochraceum encapsulated ferritin (Haliangium ochraceum) (UniProt D0LZ73); experiment: SDS-PAGE; purified Loaded-Enc on 15% acrylamide SDS-PAGE, Coomassie blue stain
[2] = target: Haliangium ochraceum encapsulated ferritin (Haliangium ochraceum) (UniProt D0LZ73); experiment: LC-MS; purified Loaded-Enc at ~2 uM on a reverse-phase C4 column, water/acetonitrile with 0.1% formic acid; deconvoluted masses
[3] = target: Haliangium ochraceum encapsulin (Haliangium ochraceum) (UniProt D0LZ74); experiment: cryo-EM structure; Loaded-Enc; asymmetric (C1) reconstruction without imposed symmetry, 3.7 A; local refinement of a single EncFtn density in CryoSPARC with PDB 5N5F docked; settings: scale: EncFtn decamers per encapsulin nanocompartment
[4] = target: Haliangium ochraceum encapsulated ferritin (Haliangium ochraceum) (UniProt D0LZ73); experiment: as above
[5] = target: Haliangium ochraceum encapsulin (Haliangium ochraceum) (UniProt D0LZ74); experiment: HDX-MS; Empty-Enc against Loaded-Enc nanocompartments; labelling in phosphate buffer in D2O pH 8.0 at 4 C, up to 24 hours; pepsin digestion
[6] = target: Haliangium ochraceum encapsulin (Haliangium ochraceum) (UniProt D0LZ74); experiment: cryo-EM structure; Loaded-Enc (3 mg/ml) vitrified; reconstruction with imposed I1 symmetry (2.5 A), then symmetry expansion and masked focused refinement of the fivefold pentamer (closed 2.2 A, open 2.4 A), Relion3.1

stoichiometry N [1]	stoichiometry N [2]	stoichiometry N [3]	stoichiometry N [4]	reduction in hydrogen/deuterium exchange of encapsulin peptide 21-37, Loaded-Enc against Empty-Enc [5]	stoichiometry N [6]	Substance
2	2	4	10	12%	–	Haliangium ochraceum encapsulated ferritin (from UniProt D0LZ73 1-131) (enzyme)
–	–	–	–	–	60	Haliangium ochraceum encapsulin (from UniProt D0LZ74 1-266) (natural protein)
